In article PMC4028186:

Key:
[1] = biological target: 50S ribosomal subunit of E. coli (E. coli) (UniProt P0A7L0); assay: stopped-flow Rayleigh light scattering of subunit association; naked 30S (0.25 µM final) mixed with 50S (0.25 µM final) preincubated with ObgE or ObgE-NG (0.5-20 µM in the mix); HEPES polymix buffer pH 7.5, 37°C; Ki from the midpoint of k obs against concentration
[2] = biological target: 50S ribosomal subunit of E. coli (E. coli) (UniProt P0A7L0)
[3] = biological target: 50S ribosomal subunit of E. coli (E. coli) (UniProt P0A7L0); assay: co-sedimentation; as a1, with 0.5 mM ppGpp
[4] = biological target: 50S ribosomal subunit of E. coli (E. coli) (UniProt P0A7L0); assay: stopped-flow Rayleigh light scattering of subunit association; 30S-preIC (0.25 µM final; mRNA, fMet-tRNAfMet, IF1, IF2, GTP) mixed with 50S (0.25 µM final) preincubated with ObgE or ObgE-NG; HEPES polymix buffer pH 7.5, 37°C; Ki from the midpoint of k obs against concentration

Chain of UniProt P0A7L0 (P0A7L0 whole entry, looked up): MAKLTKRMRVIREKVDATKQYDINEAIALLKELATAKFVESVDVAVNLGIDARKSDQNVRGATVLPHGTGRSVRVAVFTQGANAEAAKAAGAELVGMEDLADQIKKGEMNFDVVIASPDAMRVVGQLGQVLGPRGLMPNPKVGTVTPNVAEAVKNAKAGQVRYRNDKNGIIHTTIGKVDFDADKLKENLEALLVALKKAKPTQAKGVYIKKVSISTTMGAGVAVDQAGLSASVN

Substance | Ki [1] | Ki [4] | other results
30S ribosomal subunit of E. coli (naked 30S subunit) (complex) |  |  | k obs of subunit association (without ObgE) [1]: 4 s⁻¹
ObgE (Obg protein in Escherichia coli), full-length, His-tagged (from UniProt P42641 1-390) (enzyme) | 2 µM | 0.3 µM | GTP hydrolysis rate of ObgE (MESG assay, phosphate release) with increasing amounts of 50S subunits up to an equal amount; without 50S ∼0.0268 min^−1; stimulated about 120-fold [2]: 3.15 min⁻¹; fold occupancy on the 50S subunit against the apo state [3]: > 5 fold
ObgE-NG (CTD deleted construct of ObgE, residues 1-340) (from UniProt P42641 1-340) (domain or fragment) | 3.7 µM | 1 µM | 
mRNA programmed 30S-preinitiation complex (30S-preIC) (from UniProt P69222 1-72; P0A705 1-890) |  |  | k obs of subunit association (without ObgE) [4]: 20 s⁻¹
